Data on one protein can be found in paper PMC10579561, “Real flue gas CO2 hydrogenation to formate by an enzymatic reactor using O2- and CO-tolerant hydrogenase and formate dehydrogenase” (Frontiers in Bioengineering and Biotechnology, 2023).

Substrate in this series: NC(=O)C1=CN([C@@H]2O[C@H](COP(=O)(O)OP(=O)(O)OC[C@H]3O[C@@H](n4cnc5c(N)ncnc54)[C@H](O)[C@@H]3O)[C@@H](O)[C@H]2O)C=CC1
Description: purified protein. The series is classed as biochemical, Methylorubrum extorquens. The conditions noted are these: 100 mM sodium bicarbonate, N2-purged 200 mM Kpi pH 6.5 (no O2 or CO), NADH varied 6.25-100 µM, table header prints NAD+, free enzyme.

B1: MeFDH1 (Methylorubrum extorquens AM1) (protein)
chain: MSEASGTVRSFAHPGRGRNVARAVPKGRQVDPHAKVEIEELLGTRPRQRDLLIEHLHLIQDTYGQISADHLAALADEMSLAFAEVFETATFYAHFDVVKEGEADIPRLTIRVCDSITCAMFGADELLETLQRELASDAVRVVRAPCVGLCDHAPAVEVGHNFLHRADLASVRAAVEAEDTHAHIPTYVDYDAYRAGGGYATLERLRSGELPVDDVLKVLDDGGLRGLGGAGFPTGRKWRSVRGEPGPRLMAVNGDEGEPGTFKDQLYLNTDPHRFLEGMLIGAHVVEAADVYIYLRDEYPISREILAREIAKLPEGGTRIHLRRGAGAYICGEESSLIESLEGKRGLPRHKPPFPFQVGLFNRPTLINNIETLFWVRDLIERGAEWWKSHGRNGRVGLRSYSVSGRVKEPGVKLAPAGLTIQELIDEYCGGISDGHSFAAYLPGGASGGILPASMNDIPLDFGTLEKYGCFIGSAAVVILSDQDDVRGAALNLMKFFEDESCGQCTPCRSGTQKARMLMENGVWDTDLLGELAQCMRDASICGLGQAASNPVSTVIKYFPDLFPEPRAVAAE
notes: with Tungsten-containing formate dehydrogenase alpha subunit
As for B1, the Km (as a rule, the concentration of substrate that gives half-maximal velocity) is 26.38 ± 1.16 µM; the kcat (commonly the maximal rate divided by the concentration of active sites) was 2.27 ± 0.064 s⁻¹; the kcat/Km (commonly the turnover number divided by the Michaelis constant) worked out at 86200 ± 3000 M⁻¹ s⁻¹.
